This passage reports IC50 results from US20150246947A1 (BAXALTA, published 2015).

The target of this assay is T1, human Protein S (UniProt P07225 42-676).
T1 chain: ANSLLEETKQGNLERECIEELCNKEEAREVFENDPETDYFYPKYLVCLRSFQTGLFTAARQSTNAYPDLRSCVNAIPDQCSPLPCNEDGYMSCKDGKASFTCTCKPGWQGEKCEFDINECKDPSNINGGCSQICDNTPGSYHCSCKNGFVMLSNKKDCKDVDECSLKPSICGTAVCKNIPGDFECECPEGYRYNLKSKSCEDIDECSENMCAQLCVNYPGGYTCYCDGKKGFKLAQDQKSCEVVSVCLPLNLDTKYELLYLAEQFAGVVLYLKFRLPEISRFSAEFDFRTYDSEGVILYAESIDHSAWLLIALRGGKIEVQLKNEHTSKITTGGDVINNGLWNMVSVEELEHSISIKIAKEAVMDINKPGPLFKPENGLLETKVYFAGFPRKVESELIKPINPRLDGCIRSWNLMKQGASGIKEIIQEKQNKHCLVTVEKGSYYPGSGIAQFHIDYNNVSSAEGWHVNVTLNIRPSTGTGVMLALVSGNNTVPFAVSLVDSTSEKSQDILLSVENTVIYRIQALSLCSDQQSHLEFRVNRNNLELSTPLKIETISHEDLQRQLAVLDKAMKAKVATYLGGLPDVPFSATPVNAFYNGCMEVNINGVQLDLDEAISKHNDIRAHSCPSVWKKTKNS
Description: LANCE competition. An outline of the steps:
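This homogeneous time-resolved FRET competition assay (LANCE) used europium-labelled Protein S, ULight-labelled streptavidin and a biotinylated tracer peptide, with unlabelled test peptide titrated in three-fold steps. Final concentrations were 10 nM Protein S, 100 nM streptavidin and 300 nM tracer in 50 µl (or 2 nM Protein S and 60 nM tracer on a Tecan F500). Samples were incubated 1 hour at room temperature and read at Ex 340 nm, Em 665 nm. IC50 came from non-linear regression of the 665 nm signals.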
In general terms: In TR-FRET formats the signal depends on donor and acceptor labels being close together.
Take Ac-KDKVSAGWYDYNSDTYYEFT-NH2 [JBS3300]: the IC50 (commonly the point on the concentration scale where inhibition reaches its midpoint) was 3.2 nM.

With Ac-IIMVSAGWYDYNTDTYYEFE-NH2 [JBS3301], the IC50 came to 1.3 nM.

The molecule Ac-WYEVEIGWYDYNTDTYQEFY-NH2 [JBS3308] showed a half-inhibitory concentration (IC50) of 1.4 nM.

Consider Ac-EVYVSAGWYNYNEDAYYEFW-NH2 [JBS3287], for which the IC50 worked out at 1.2 nM.

For the molecule Ac-EYFVSAGWYDYNADIYYEFD-NH2 [JBS3278], the IC50 came to 1.1 nM.

Molecule Ac-YNIVSAGWYDYNKDTYYEFF-NH2 [JBS3279] displayed a half-inhibitory concentration (IC50) of 1.5 nM.

In turn, Ac-EHIVSAGWYDYNMDEYYEFW-NH2 [JBS3294] returned an IC50 of 6.3 nM.

On to Ac-EYTVSAGWYNYNADEYYEFE-NH2 [JBS3253], for which the IC50 is 2.8 nM.

Molecule Ac-ITHVTAGWYDYNTDTYYEFI-NH2 [JBS3302] returned an IC50 of 3.5 nM.

For Ac-AYIVEAGWYDYNTDTYEEFW-NH2 [JBS3305], the IC50 turned out to be 3.7 nM.

Turning to Ac-ESYVSAGWYDYNTDTYYEFY-NH2 [JBS3262], the IC50 is 1 nM.

Ac-YVTVSAGWYDYNKDEYFEFY-NH2 [JBS3309] gave an IC50 of 1.1 nM.

The molecule Ac-DVYVSAGWYDYNEDTYYEFS-NH2 [JBS3288] registered an IC50 of 3.1 nM.

In the case of Ac-VIEVSAGWYDYNEDKYYEFW-NH2 [JBS3303], the IC50 was determined as 1.7 nM.

Molecule Ac-EYTASAGWYDYNSDTYYEFE-NH2 [JBS3255] displayed an IC50 of 9.5 nM.

Consider Ac-ESIVSAGWYDYNTDTYYEFT-NH2 [JBS3268], for which the IC50 was 1.5 nM.

The molecule Ac-EYSVSAGWYDYYNDTYYEFY-NH2 [JBS3265] had an IC50 of 1.4 nM.

In the case of Ac-NYIVSAGWYDYNNDEYIEFY-NH2 [JBS3286], the IC50 came out at 1.3 nM.

For Ac-YNEVSAGWYDMNEDTYYEFY-NH2 [JBS3280], the IC50 stood at 5.3 nM.

Ac-EYEVSAGWYDYNNDVYNEFY-NH2 [JBS3277] came in with an IC50 of 3.4 nM.

Consider Ac-YGIVSAGWYEYNTDIYEEFW-NH2 [JBS3257], for which the IC50 came out at 14.8 nM.

Consider Ac-EYTISAGWYDYNTDMYYEFV-NH2 [JBS3254], for which the IC50 was 1.6 nM.

Ac-EATVSIGWYDYNKDEYYEFY-NH2 [JBS3291] displayed an IC50 of 8 nM.

Ac-EAMVSAGWYDYMNDTYYEFE-NH2 [JBS3293] showed an IC50 of 2.1 nM.
